This is an account of results in publication PMC7229842, “Molecular basis of the multifaceted functions of human leucyl-tRNA synthetase in protein synthesis and beyond” (Nucleic Acids Research, 2020).

In assay [1] the target is T1, MRS-AIMP3 complex (human cytosolic methionyl-tRNA synthetase co-expressed with AIMP3) (human, UniProt P56192 1-900; O43324 1-174).
T1 construct: human cytosolic methionyl-tRNA synthetase (MRS), gene cloned from the cDNA of HEK293 cells; Only MRS carries the Flag tag; It is the bait of the anti-Flag pull-down of the assembled MSC; source: co-expressed from a modified pETDuet-1, purified (Ni-NTA, gel filtration); not shown: Flag, C-terminal, kept
T1 sequence (looked up) 1: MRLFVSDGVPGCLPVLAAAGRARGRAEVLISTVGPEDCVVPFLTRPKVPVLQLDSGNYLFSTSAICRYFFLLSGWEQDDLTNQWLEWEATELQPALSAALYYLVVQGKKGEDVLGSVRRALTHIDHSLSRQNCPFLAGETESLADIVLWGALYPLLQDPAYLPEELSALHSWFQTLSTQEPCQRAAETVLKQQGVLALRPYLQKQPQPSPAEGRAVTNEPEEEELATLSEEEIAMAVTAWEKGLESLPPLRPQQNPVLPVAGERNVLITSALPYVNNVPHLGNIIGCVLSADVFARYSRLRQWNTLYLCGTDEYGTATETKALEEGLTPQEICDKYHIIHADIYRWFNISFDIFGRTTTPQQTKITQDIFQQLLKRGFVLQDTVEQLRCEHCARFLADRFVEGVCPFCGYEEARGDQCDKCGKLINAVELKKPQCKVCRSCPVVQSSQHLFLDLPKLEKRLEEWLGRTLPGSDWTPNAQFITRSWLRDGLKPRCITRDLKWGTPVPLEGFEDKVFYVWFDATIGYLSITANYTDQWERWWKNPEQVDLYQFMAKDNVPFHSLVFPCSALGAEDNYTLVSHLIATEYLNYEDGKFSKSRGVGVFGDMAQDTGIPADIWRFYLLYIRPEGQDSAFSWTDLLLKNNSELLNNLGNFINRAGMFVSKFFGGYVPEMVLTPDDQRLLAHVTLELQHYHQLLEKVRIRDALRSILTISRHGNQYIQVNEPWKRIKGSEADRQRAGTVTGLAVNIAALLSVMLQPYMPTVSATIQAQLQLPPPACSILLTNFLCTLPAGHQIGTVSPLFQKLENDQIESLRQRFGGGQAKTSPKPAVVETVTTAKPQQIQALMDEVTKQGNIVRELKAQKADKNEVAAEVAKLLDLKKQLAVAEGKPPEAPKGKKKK
T1 sequence (looked up) 2: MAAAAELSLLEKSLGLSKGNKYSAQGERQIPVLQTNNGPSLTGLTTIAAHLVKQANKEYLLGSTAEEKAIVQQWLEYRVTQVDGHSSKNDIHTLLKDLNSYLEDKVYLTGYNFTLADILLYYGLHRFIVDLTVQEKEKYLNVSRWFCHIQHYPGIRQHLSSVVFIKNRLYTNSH
The assay can be described thus: pull-down; in vitro assembly of the MSC as in a2 but lacking IRS; anti-Flag beads on MRS-Flag. Particulars: both partners purified.

Assay [2] deals with T2, Human cytosolic isoleucyl-tRNA synthetase (human, UniProt P41252 1-1262).
T2 construct: human cytosolic isoleucyl-tRNA synthetase (IRS), gene cloned from the cDNA of HEK293 cells; also called IRS; source: recombinant from a modified pET28b, purified (Ni-NTA, gel filtration)
T2 sequence (looked up): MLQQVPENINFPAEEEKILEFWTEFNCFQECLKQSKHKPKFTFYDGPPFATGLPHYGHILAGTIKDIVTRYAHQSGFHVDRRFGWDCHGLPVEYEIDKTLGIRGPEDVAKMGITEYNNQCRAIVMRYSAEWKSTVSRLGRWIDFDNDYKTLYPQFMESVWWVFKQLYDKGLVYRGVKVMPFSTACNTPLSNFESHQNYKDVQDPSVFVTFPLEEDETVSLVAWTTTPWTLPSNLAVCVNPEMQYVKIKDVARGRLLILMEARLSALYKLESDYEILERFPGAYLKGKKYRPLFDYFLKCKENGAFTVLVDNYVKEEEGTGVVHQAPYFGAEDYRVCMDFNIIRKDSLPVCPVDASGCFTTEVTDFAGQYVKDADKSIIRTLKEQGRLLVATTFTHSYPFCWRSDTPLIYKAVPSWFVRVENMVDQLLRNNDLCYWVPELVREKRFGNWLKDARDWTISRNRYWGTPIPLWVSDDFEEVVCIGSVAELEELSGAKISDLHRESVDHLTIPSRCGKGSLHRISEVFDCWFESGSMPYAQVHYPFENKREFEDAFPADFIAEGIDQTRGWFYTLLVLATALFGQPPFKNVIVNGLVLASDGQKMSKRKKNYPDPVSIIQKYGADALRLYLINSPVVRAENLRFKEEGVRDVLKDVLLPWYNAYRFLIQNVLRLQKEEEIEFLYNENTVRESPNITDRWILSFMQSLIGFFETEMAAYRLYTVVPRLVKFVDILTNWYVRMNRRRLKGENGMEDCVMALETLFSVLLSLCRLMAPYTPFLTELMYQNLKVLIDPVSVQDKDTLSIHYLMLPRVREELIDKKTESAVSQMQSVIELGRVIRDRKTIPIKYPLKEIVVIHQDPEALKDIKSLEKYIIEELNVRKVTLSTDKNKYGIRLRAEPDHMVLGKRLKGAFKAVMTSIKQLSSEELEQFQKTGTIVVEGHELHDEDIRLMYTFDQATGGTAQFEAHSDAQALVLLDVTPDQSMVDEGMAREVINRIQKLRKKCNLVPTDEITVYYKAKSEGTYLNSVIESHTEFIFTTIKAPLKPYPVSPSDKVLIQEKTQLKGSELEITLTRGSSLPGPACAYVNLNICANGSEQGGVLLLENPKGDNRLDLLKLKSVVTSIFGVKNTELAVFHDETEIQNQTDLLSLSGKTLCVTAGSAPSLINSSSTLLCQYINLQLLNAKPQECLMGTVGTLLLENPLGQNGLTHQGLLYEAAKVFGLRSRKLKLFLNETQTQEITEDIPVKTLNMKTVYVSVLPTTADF
Nature of the assay: SEC; purified hcLRS (or hcLRS_d106) incubated with each partner separately for 4 h, then run on gel filtration; protein incubated with buffer as control. Particulars: both partners purified.

B1: AaRS-interacting multi-functional protein 1 (natural protein, human, UniProt Q12904 1-312, looked up)
chain: MANNDAVLKRLEQKGAEADQIIEYLKQQVSLLKEKAILQATLREEKKLRVENAKLKKEIEELKQELIQAEIQNGVKQIPFPSGTPLHANSMVSENVIQSTAVTTVSSGTKEQIKGGTGDEKKAKEKIEKKGEKKEKKQQSIAGSADSKPIDVSRLDLRIGCIITARKHPDADSLYVEEVDVGEIAPRTVVSGLVNHVPLEQMQNRMVILLCNLKPAKMRGVLSQAMVMCASSPEKIEILAPPNGSVPGDRITFDAFPGEPDKELNPKKKIWEQIQPDLHTNDECVATYKGVPFEVKGKGVCRAQTMSNSGIK
notes: human AIMP1, gene cloned from the cDNA of HEK293 cells; also called AIMP1; source: recombinant from a modified pET28b, purified (Ni-NTA, gel filtration)
Consider B1, for which the binding result in assay [1] is listed as “binds”.

B2: Human cytosolic aspartyl-tRNA synthetase (enzyme, UniProt P14868 1-501, looked up)
chain: MPSASASRKSQEKPREIMDAAEDYAKERYGISSMIQSQEKPDRVLVRVRDLTIQKADEVVWVRARVHTSRAKGKQCFLVLRQQQFNVQALVAVGDHASKQMVKFAANINKESIVDVEGVVRKVNQKIGSCTQQDVELHVQKIYVISLAEPRLPLQLDDAVRPEAEGEEEGRATVNQDTRLDNRVIDLRTSTSQAVFRLQSGICHLFRETLINKGFVEIQTPKIISAASEGGANVFTVSYFKNNAYLAQSPQLYKQMCICADFEKVFSIGPVFRAEDSNTHRHLTEFVGLDIEMAFNYHYHEVMEEIADTMVQIFKGLQERFQTEIQTVNKQFPCEPFKFLEPTLRLEYCEALAMLREAGVEMGDEDDLSTPNEKLLGHLVKEKYDTDFYILDKYPLAVRPFYTMPDPRNPKQSNSYDMFMRGEEILSGAQRIHDPQLLTERALHHGIDLEKIKAYIDSFRFGAPPHAGGGIGLERVTMLFLGLHNVRQTSMFPRDPKRLTP
notes: human cytosolic DRS, gene cloned from the cDNA of HEK293 cells; also called DRS; source: recombinant from a modified pET28b, purified (Ni-NTA, gel filtration)
Consider B2, for which the binding result in assay [1] was “binds”.

B3: Human cytosolic glutaminyl-tRNA synthetase (enzyme, UniProt P47897 1-775, looked up)
chain: MAALDSLSLFTSLGLSEQKARETLKNSALSAQLREAATQAQQTLGSTIDKATGILLYGLASRLRDTRRLSFLVSYIASKKIHTEPQLSAALEYVRSHPLDPIDTVDFERECGVGVIVTPEQIEEAVEAAINRHRPQLLVERYHFNMGLLMGEARAVLKWADGKMIKNEVDMQVLHLLGPKLEADLEKKFKVAKARLEETDRRTAKDVVENGETADQTLSLMEQLRGEALKFHKPGENYKTPGYVVTPHTMNLLKQHLEITGGQVRTRFPPEPNGILHIGHAKAINFNFGYAKANNGICFLRFDDTNPEKEEAKFFTAICDMVAWLGYTPYKVTYASDYFDQLYAWAVELIRRGLAYVCHQRGEELKGHNTLPSPWRDRPMEESLLLFEAMRKGKFSEGEATLRMKLVMEDGKMDPVAYRVKYTPHHRTGDKWCIYPTYDYTHCLCDSIEHITHSLCTKEFQARRSSYFWLCNALDVYCPVQWEYGRLNLHYAVVSKRKILQLVATGAVRDWDDPRLFTLTALRRRGFPPEAINNFCARVGVTVAQTTMEPHLLEACVRDVLNDTAPRAMAVLESLRVIITNFPAAKSLDIQVPNFPADETKGFHQVPFAPIVFIERTDFKEEPEPGFKRLAWGQPVGLRHTGYVIELQHVVKGPSGCVESLEVTCRRADAGEKPKAFIHWVSQPLMCEVRLYERLFQHKNPEDPTEVPGGFLSDLNLASLHVVDAALVDCSVALAKPFDKFQFERLGYFSVDPDSHQGKLVFNRTVTLKEDPGKV
notes: human cytosolic QRS, gene cloned from the cDNA of HEK293 cells; also called QRS; source: recombinant from a modified pET28b, purified (Ni-NTA, gel filtration)
For the molecule B3, the binding result in assay [1] is “binds”.

B4: Human cytosolic arginyl-tRNA synthetase (enzyme, UniProt P54136 1-660, looked up)
chain: MDVLVSECSARLLQQEEEIKSLTAEIDRLKNCGCLGASPNLEQLQEENLKLKYRLNILRKSLQAERNKPTKNMINIISRLQEVFGHAIKAAYPDLENPPLLVTPSQQAKFGDYQCNSAMGISQMLKTKEQKVNPREIAENITKHLPDNECIEKVEIAGPGFINVHLRKDFVSEQLTSLLVNGVQLPALGENKKVIVDFSSPNIAKEMHVGHLRSTIIGESISRLFEFAGYDVLRLNHVGDWGTQFGMLIAHLQDKFPDYLTVSPPIGDLQVFYKESKKRFDTEEEFKKRAYQCVVLLQGKNPDITKAWKLICDVSRQELNKIYDALDVSLIERGESFYQDRMNDIVKEFEDRGFVQVDDGRKIVFVPGCSIPLTIVKSDGGYTYDTSDLAAIKQRLFEEKADMIIYVVDNGQSVHFQTIFAAAQMIGWYDPKVTRVFHAGFGVVLGEDKKKFKTRSGETVRLMDLLGEGLKRSMDKLKEKERDKVLTAEELNAAQTSVAYGCIKYADLSHNRLNDYIFSFDKMLDDRGNTAAYLLYAFTRIRSIARLANIDEEMLQKAARETKILLDHEKEWKLGRCILRFPEILQKILDDLFLHTLCDYIYELATAFTEFYDSCYCVEKDRQTGKILKVNMWRMLLCEAVAAVMAKGFDILGIKPVQRM
notes: human cytosolic RRS, gene cloned from the cDNA of HEK293 cells; also called RRS; source: recombinant from a modified pET28b, purified (Ni-NTA, gel filtration)
As for B4, in assay [1], the binding result is on record as “binds”.

B5: Human cytosolic leucyl-tRNA synthetase, full length (enzyme)
chain: not shown
notes: human cytosolic leucyl-tRNA synthetase, UniProt Q9P2J5, 1176 residues; also called hcLRS; FL-hcLRS; source: recombinant from pET16b-hcLRS, purified (Ni-NTA, gel filtration)
As for B5, in assay [2], the binding result was “binds”.
